Laboratory results as given in patent US10314894B2, “Treatment of cardio-renal disease using PCSK6” (THE CLEVELAND CLINIC FOUNDATION, priority 2014, dated 2019).

Biological target: T1, corin mutant R801A (Homo sapiens, UniProt Q9Y5Q5, R801A)
T1 construct: expressed in transfected cells; host or cells: HEK293
T1 sequence (Q9Y5Q5 1-1042 R801A): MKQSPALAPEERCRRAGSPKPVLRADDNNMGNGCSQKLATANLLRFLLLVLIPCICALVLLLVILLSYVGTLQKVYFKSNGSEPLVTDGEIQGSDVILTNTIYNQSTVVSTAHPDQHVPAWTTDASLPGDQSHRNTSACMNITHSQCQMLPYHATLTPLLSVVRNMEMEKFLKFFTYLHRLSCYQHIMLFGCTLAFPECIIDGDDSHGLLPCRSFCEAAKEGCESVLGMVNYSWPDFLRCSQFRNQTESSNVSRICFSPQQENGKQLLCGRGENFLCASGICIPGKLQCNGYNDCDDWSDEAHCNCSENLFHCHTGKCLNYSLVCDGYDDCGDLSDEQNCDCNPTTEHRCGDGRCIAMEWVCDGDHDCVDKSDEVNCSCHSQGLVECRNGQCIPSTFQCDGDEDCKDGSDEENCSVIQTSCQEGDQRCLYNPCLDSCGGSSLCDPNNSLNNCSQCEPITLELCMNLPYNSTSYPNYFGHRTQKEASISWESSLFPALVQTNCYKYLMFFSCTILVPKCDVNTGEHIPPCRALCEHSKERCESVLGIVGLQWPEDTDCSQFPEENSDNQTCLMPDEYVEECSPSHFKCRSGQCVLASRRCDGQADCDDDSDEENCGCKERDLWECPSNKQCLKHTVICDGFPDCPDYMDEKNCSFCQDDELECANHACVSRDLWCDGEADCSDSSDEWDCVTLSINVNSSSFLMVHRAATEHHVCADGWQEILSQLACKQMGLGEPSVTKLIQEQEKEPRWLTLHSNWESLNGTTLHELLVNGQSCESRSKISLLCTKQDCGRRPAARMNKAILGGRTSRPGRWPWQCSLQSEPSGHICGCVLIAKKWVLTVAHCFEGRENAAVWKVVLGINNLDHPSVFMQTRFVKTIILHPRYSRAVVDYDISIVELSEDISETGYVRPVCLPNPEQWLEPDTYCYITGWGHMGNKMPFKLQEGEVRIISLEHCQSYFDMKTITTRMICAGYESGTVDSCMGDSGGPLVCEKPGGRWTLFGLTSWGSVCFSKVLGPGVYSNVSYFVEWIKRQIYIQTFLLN
Experiment: Corin activation by purified PCSK6 on HEK293 cells, corin mutant R801A
Format: cell-based
Details: corin R801A mutant lacking the cleavage site, 2 h
Method: HEK293 and HL-1 cells expressing recombinant corin in 6-well plates were incubated with 1.5 mL (200 μM) of membrane impermeable Sulfo-NHS-SS-biotin for 5 min. Qi et al., J Biol Chem 286, 20963-20969 (2011). A quenching solution was added to the wells and incubated on ice for 10 min. Cells were lysed in the lysis buffer. Labeled proteins were isolated with avidin-coupled agarose beads and analyzed by Western blotting.
Stable HEK293 cells were established to produce human PCSK6 with a C-terminal flag tag. The cells were cultured in DMEM with 10% FBS and 600 μg/mL G418. At confluency, the cells were washed with PBS and cultured with Reduced-Serum Medium. After 72 h, the conditioned medium was collected, centrifuged (10 min at 17,000 g) to remove cell debris, and concentrated to ⅕ of the original volume using a Centrifugal filter unit at 4° C. The concentrated medium was incubated with anti-flag M2 affinity bead slurry in a volume ratio of 25:1 on a rotator at 4° C. for 2 h. […] After centrifugation, the supernatant containing purified PCSK6 was collected, and analyzed by SDS-PAGE followed by silver staining and Western blotting.
Stable HEK293 cells expressing human corin were cultured in 6-well plates in DMEM with 10% FBS and 2 μM monensin. […] After 2 h, cell surface proteins were labeled and corin protein was analyzed by Western blotting.

- activation of corin on the cell surface by purified recombinant PCSK6: did not cleave
B1: proprotein convertase subtilisin/kexin-6 (protein, listed as Homo sapiens)
chain: MPPRAPPAPGPRPPPRAAAATDTAAGAGGAGGAGGAGGPGFRPLAPRPWRWLLLLALPAACSAPPPRPVYTNHWAVQVLGGPAEADRVAAAHGYLNLGQIGNLEDYYHFYHSKTFKRSTLSSRGPHTFLRMDPQVKWLQQQEVKRRVKRQVRSDPQALYFNDPIWSNMWYLHCGDKNSRCRSEMNVQAAWKRGYTGKNVVVTILDDGIERNHPDLAPNYDSYASYDVNGNDYDPSPRYDASNENKHGTRCAGEVAASANNSYCIVGIAYNAKIGGIRMLDGDVTDVVEAKSLGIRPNYIDIYSASWGPDDDGKTVDGPGRLAKQAFEYGIKKGRQGLGSIFVWASGNGGREGDYCSCDGYTNSIYTISVSSATENGYKPWYLEECASTLATTYSSGAFYERKIVTTDLRQRCTDGHTGTSVSAPMVAGIIALALEANSQLTWRDVQHLLVKTSRPAHLKASDWKVNGAGHKVSHFYGFGLVDAEALVVEAKKWTAVPSQHMCVAASDKRPRSIPLVQVLRTTALTSACAEHSDQRVVYLEHVVVRTSISHPRRGDLQIYLVSPSGTKSQLLAKRLLDLSNEGFTNWEFMTVHCWGEKAEGQWTLEIQDLPSQVRNPEKQGKLKEWSLILYGTAEHPYHTFSAHQSRSRMLELSAPELEPPKAALSPSQVEVPEDEEDYTAQSTPGSANILQTSVCHPECGDKGCDGPNADQCLNCVHFSLGSVKTSRKCVSVCPLGYFGDTAARRCRRCHKGCETCSSRAATQCLSCRRGFYHHQEMNTCVTLCPAGFYADESQKNCLKCHPSCKKCVDEPEKCTVCKEGFSLARGSCIPDCEPGTYFDSELIRCGECHHTCGTCVGPGREECIHCAKNFHFHDWKCVPACGEGFYPEEMPGLPHKVCRRCDENCLSCAGSSRNCSRCKTGFTQLGTSCITNHTCSNADETFCEMVKSNRLCERKLFIQFCCRTCLLAG
modifications: C-terminal FLAG tag
